From US20160250307A1 (IMMATICS BIOTECHNOLOGIES, published 2016)

B1: KLKETIQKL (peptide)
peptide: KLKETIQKL
B2: GVLPGLVGV (peptide)
peptide: GVLPGLVGV
B3: HLTEAIQYV (peptide)
peptide: HLTEAIQYV
B4: KILEETLYV (peptide)
peptide: KILEETLYV
B5: GLIHLEGDTV (peptide)
peptide: GLIHLEGDTV
B6: ILADTFIGV (peptide)
peptide: ILADTFIGV
B7: GLLDPNVKSIFV (peptide)
peptide: GLLDPNVKSIFV
B8: KLFSGDELLEV (peptide)
peptide: KLFSGDELLEV
B9: KIDEKNFVV (peptide)
peptide: KIDEKNFVV
B10: KLHEEIDRV (peptide)
peptide: KLHEEIDRV
B11: GLYGRTIEL (peptide)
peptide: GLYGRTIEL
B12: ALSQVTLLL (peptide)
peptide: ALSQVTLLL
B13: ALYGRLEVV (peptide)
peptide: ALYGRLEVV
B14: ALTSISAGV (peptide)
peptide: ALTSISAGV
B15: SLSAFLPSL (peptide)
peptide: SLSAFLPSL
B16: LLYEGKLTL (peptide)
peptide: LLYEGKLTL
B17: VLMDKLVEL (peptide)
peptide: VLMDKLVEL
B18: GLAFSLNGV (peptide)
peptide: GLAFSLNGV
B19: SLLPQLIEV (peptide)
peptide: SLLPQLIEV
B20: ALLETNPYLL (peptide)
peptide: ALLETNPYLL
B21: VLGEVKVGV (peptide)
peptide: VLGEVKVGV
B22: ALDAGAVYTL (peptide)
peptide: ALDAGAVYTL
B23: SLLEEPNVIRV (peptide)
peptide: SLLEEPNVIRV
B24: TLGQFYQEV (peptide)
peptide: TLGQFYQEV
B25: LLIDVVTYL (peptide)
peptide: LLIDVVTYL
B26: SVYDGKLLI (peptide)
peptide: SVYDGKLLI
B27: VLIGSNHSL (peptide)
peptide: VLIGSNHSL
B28: TVGGSEILFEV (peptide)
peptide: TVGGSEILFEV
B29: QLHDFVMSL (peptide)
peptide: QLHDFVMSL
B30: ALPTVLVGV (peptide)
peptide: ALPTVLVGV

Target: HLA-A*02 (human)
Experiment: UV-ligand exchange, anti-b2m ELISA; grade: exchange yield >=50%

With B1 as the binder, how does the peptide exchange yield read?
The peptide exchange yield was 50 to 75%.

Which peptide exchange yield does the source give for B2 here?
The peptide exchange yield was 50 to 75%.

With B3 as the binder, how does the peptide exchange yield read?
Its peptide exchange yield is 50 to 75%.

Which peptide exchange yield does the source give for B4 here?
Its peptide exchange yield is 50 to 75%.

B5 was tested. Which peptide exchange yield did it give?
Its peptide exchange yield is 50 to 75%.

With B6 as the binder, how does the peptide exchange yield read?
Its peptide exchange yield is 50 to 75%.

Which peptide exchange yield does the source give for B7 here?
Its peptide exchange yield is 50 to 75%.

Which peptide exchange yield does the source give for B8 here?
Its peptide exchange yield is 50 to 75%.

For B9, which peptide exchange yield is on record?
Its peptide exchange yield is 50 to 75%.

With B10 as the binder, how does the peptide exchange yield read?
The peptide exchange yield was 50 to 75%.

Which peptide exchange yield does the source give for B11 here?
Its peptide exchange yield is 50 to 75%.

Target: HLA-A*02 (human)
Experiment: UV-ligand exchange, anti-b2m ELISA; grade: exchange yield >=75%

For B12, which peptide exchange yield is on record?
Its peptide exchange yield is at least 75%.

With B13 as the binder, how does the peptide exchange yield read?
Its peptide exchange yield is at least 75%.

For B14, which peptide exchange yield is on record?
Its peptide exchange yield is at least 75%.

With B15 as the binder, how does the peptide exchange yield read?
The peptide exchange yield was at least 75%.

B16 was tested. Which peptide exchange yield did it give?
Its peptide exchange yield is at least 75%.

Which peptide exchange yield does the source give for B17 here?
Its peptide exchange yield is at least 75%.

B18 was tested. Which peptide exchange yield did it give?
Its peptide exchange yield is at least 75%.

How did the peptide exchange yield turn out when B19 was run?
The peptide exchange yield was at least 75%.

Which peptide exchange yield does the source give for B20 here?
The peptide exchange yield was at least 75%.

For B21, which peptide exchange yield is on record?
The peptide exchange yield was at least 75%.

How did the peptide exchange yield turn out when B22 was run?
Its peptide exchange yield is at least 75%.

How did the peptide exchange yield turn out when B23 was run?
The peptide exchange yield was at least 75%.

B24 was tested. Which peptide exchange yield did it give?
Its peptide exchange yield is at least 75%.

B25 was tested. Which peptide exchange yield did it give?
Its peptide exchange yield is at least 75%.

Which peptide exchange yield does the source give for B26 here?
The peptide exchange yield was at least 75%.

With B27 as the binder, how does the peptide exchange yield read?
Its peptide exchange yield is at least 75%.

Which peptide exchange yield does the source give for B28 here?
Its peptide exchange yield is at least 75%.

Which peptide exchange yield does the source give for B29 here?
Its peptide exchange yield is at least 75%.

With B30 as the binder, how does the peptide exchange yield read?
Its peptide exchange yield is at least 75%.
